Common to all, as to test: cryo-EM structure; CMG (125 nM) with fork DNA, AMP-PNP, TIM-1/TIPN-1 and DNSN-1 isoform c (each 1.3-fold molar excess), GraFix gradient with glutaraldehyde and BS3
Holding throughout (conditions): both partners purified

In assay [1] the target is T1, TIM-1 (C. elegans, UniProt G5EDN3 1-1353).
T1 construct: TIM-1, C. elegans; Chain of m13, written alone for its contacts in the structure; source: S. cerevisiae, purified as part of the TIM-1_TIPN-1 complex
T1 sequence: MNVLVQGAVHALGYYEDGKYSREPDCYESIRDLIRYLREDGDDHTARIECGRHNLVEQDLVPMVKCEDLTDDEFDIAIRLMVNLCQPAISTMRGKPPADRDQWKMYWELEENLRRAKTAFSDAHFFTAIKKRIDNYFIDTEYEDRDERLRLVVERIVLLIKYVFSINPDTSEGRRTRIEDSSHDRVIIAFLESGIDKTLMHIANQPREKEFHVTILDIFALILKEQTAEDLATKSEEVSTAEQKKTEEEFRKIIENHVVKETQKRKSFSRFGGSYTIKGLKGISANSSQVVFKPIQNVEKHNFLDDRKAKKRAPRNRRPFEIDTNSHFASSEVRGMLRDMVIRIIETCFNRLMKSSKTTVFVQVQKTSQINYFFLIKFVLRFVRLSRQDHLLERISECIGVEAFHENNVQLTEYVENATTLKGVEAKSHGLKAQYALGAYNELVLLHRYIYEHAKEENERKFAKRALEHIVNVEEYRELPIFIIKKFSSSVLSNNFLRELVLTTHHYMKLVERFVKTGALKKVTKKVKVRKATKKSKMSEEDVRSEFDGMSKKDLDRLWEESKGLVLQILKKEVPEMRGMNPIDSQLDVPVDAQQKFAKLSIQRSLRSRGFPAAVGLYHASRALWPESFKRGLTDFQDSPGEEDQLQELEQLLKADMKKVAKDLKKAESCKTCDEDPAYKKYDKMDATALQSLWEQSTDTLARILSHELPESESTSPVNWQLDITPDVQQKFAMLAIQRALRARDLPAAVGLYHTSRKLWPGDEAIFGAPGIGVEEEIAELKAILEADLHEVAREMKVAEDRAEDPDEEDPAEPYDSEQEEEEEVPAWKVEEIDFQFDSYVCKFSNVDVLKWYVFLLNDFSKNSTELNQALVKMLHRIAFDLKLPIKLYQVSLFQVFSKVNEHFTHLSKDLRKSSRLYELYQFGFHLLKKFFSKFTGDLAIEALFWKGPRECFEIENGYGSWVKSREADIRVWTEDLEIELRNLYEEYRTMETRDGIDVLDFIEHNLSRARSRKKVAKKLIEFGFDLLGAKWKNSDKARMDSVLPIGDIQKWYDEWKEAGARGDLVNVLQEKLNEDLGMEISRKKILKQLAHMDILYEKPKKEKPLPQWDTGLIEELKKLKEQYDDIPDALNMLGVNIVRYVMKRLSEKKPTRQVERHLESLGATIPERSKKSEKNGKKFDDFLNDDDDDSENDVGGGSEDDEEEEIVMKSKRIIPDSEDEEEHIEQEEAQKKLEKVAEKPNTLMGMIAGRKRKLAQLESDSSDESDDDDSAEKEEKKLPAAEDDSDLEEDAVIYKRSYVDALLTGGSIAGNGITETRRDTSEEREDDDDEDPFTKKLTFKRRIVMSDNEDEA

In assay [2] the target is T2, MCM-4 (C. elegans, UniProt Q95XQ8 1-823).
T2 construct: MCM-4, C. elegans; Subunit of m11, written alone for its interfaces in the structure; source: S. cerevisiae, purified as part of recombinant CMG
T2 sequence: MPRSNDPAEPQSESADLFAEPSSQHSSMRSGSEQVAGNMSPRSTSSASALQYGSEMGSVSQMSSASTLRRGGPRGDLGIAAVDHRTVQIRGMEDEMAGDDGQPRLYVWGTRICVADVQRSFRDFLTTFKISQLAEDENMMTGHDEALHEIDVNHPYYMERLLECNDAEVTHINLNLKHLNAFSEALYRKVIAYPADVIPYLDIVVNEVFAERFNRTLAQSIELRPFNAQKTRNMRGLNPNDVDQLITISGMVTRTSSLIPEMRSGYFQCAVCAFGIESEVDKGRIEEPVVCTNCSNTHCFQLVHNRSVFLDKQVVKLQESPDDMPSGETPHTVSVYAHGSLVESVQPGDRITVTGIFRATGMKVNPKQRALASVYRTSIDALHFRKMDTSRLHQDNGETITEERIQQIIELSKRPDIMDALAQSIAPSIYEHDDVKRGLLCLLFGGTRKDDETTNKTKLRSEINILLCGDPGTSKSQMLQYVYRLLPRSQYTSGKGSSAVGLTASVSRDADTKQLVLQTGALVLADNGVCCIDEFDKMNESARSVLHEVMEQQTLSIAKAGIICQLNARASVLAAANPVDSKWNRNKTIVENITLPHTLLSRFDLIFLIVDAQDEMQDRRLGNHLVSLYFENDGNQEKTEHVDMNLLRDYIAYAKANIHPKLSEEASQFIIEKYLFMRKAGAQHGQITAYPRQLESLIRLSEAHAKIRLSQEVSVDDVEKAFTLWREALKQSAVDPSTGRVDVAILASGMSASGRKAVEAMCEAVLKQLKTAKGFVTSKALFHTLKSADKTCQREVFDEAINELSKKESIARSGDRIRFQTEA

Assay [3] addresses T3, MCM-3 (C. elegans, UniProt Q9XVR7 1-812).
T3 construct: MCM-3, C. elegans; Subunit of m11, written alone for its contacts in the structure; also called MCM-3 subunit of MCM-2-7; source: S. cerevisiae, purified as part of recombinant CMG
T3 sequence: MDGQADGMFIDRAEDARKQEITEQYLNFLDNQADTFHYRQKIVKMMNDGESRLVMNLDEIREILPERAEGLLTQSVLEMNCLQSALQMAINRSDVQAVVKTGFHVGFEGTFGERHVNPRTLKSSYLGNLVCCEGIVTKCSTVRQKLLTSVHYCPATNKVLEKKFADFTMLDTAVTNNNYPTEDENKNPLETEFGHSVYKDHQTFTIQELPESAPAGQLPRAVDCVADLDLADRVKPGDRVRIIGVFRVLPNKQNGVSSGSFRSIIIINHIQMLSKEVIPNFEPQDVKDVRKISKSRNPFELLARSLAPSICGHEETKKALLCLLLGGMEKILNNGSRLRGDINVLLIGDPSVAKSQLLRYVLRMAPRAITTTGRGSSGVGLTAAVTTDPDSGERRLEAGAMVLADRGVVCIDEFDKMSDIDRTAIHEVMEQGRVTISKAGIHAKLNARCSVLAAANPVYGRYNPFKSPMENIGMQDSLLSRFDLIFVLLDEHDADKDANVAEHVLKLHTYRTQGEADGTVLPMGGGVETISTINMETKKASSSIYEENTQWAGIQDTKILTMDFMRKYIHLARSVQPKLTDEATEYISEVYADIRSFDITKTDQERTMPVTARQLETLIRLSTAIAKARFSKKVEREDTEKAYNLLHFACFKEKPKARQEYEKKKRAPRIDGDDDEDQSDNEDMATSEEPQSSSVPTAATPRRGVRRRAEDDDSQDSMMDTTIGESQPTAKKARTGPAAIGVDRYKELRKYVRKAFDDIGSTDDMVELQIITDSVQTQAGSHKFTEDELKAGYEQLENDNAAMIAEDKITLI

This is an account of results in paper PMC7615117, “DNSN-1 recruits GINS for CMG helicase assembly during DNA replication initiation in C. elegans” (Science (New York, N.Y.), 2023).

B1: MCM-2 (natural protein, C. elegans)
chain: MADRANNDDDVDRQPLPIADDADDDVDGIDEMFNNEDEDPEDEEGENLFGDDMERDYREQPELDQYSESGMDDASDVGSLSVSARRAAEREMAQRDQLLDDDALMYEDGDSEEVDTRRRGRGRRGRGDAADDDSVPMEEEDIPVDILENIRGRTIRDHVSDEAVAKEIERRFKNFLRSFHEPGNKQTKYIQMIKSMAADNRESLEVSFTDLSDDNGEQNISYFLPEAPNEMLAIMDRAATEVVMNMYPFYSRVCNEIKVRISQLPVEEDIRMLRQVHLNMLIRTAGVVTIASGILPQLAVVKYDCVACGYLLGPFVQQNDEEVRPTICPSCQGKGPFELNVENTVYHNYQRITMQESPNKVAAGRLPRSKDVILLGDLCDSCKPGDEIEVTGVYTNNFDGSLNYKQGFPVFNTLIHANHITNKDKMASDQLTDEDIKAIRELSQDPNISQRVFSSIAPSIYGHDDVKRAIALALFRGEAKNPGAKHRLRGDINVLLCGDPGTAKSQFLRYAAHIAPRSVLTTGQGASAVGLTAYVQRHPVTREWTLEAGAMVLADKGVCLIDEFDKMSDQDRTSIHEAMEQQSISISKAGIVTSLHARCTVIAASNPIGGRYNPTRTFAENVDLTEPILSRFDVLCVIRDSVDSVEDERLAKFVVGNHRTHHPDAKKIVKEGDELEEDQMDERTGVRLIPQDLLRKYIIYAREKCHPTLPEQHSEKFSNIFAQMRKESMATGSVAITVRHVESMIRLSEAHAKLHLRSYVNDEDCAAAIRVMLESFVNTQKASIMRMMKKTFSRHLTENRSANELLLFILKQLIRQQMHYATARAAAGTILQSVTIPESEFIEKAQQLRIENVKPFYTSEIFASNNFLYDPSKKTIVQEIF
notes: MCM-2, C. elegans; Subunit of m11, written alone for its contacts in the structure; source: S. cerevisiae, purified as part of recombinant CMG
In the case of B1, the binding result in assay [1] was “binds”.

B2: TIPN-1 (natural protein, C. elegans)
chain: MDEMEDFFENDELDREPSPMGDEAIEDNSGEGGTRRVVEPKLLRTKRLANPRLALNERILTGPKGISALRETLKDFKPNPKDDPYANLEKLMKKYAYWGHLMFPKMKTEDVLNRVETLGTRRQVKVFMIKHRLGETGEDSEHEEQENQKNGIIDDGASDNDDDLFKDLPEKEVTTEKAKNSEKSDQKTAEIDENVEEEYRMMEEERLREEQEAKEAADEDALMEDFGDMNNDW
notes: TIPN-1, C. elegans; Chain of m13, written alone; source: S. cerevisiae, purified as part of the TIM-1_TIPN-1 complex
In the case of B2, in assay [1], the binding result is on record as “binds”.

B3: MCM-6 (natural protein, C. elegans)
chain: MDNIIGGQAQQVEDTDGTRVQNEFSKFLKSFKDQKNEFIYKSAMKELVQPEKNTIFINMQHLYKFSNNLATTIELQYYRVYPFMCEALHLATLDACDESERQQMFKKQLYVSLFNLDAKTKVRELSADKVGGLVRIAGQIVRTHPVHPELSRACFVCEDCGVTTRDVQQQFRYTQPTKCANPQCMNRTRFSLDVNSSTFVDFQKIRIQETQAELPRGSIPRTVDVIVRGEMVETVQPGDKCDIVGTLIVIPDIAQLSTPGLRAETSNQNRGRATDKSEGITGLKALGVRDLTYKMAFLACHIQQTESLVGGDASGAVEETDYLDLWSKMSTEDRATLKKMSDDKKIEKNIVDSLFPNIYGNHEVKLGVLLMLLGGVAKKSRDEGTSLRGDINVCLVGDPSTAKSQVLKAVEEFSPRAIYTSGKASSAAGLTAAVVKDEESFEFVIEAGALMLADNGVCCIDEFDKMDLKDQVAIHEAMEQQTISITKAGVKATLNARASILAAANPVNGRYDRSRPLKYNVQMSAPIMSRFDLFFVLVDECNEVTDYAIARRILDNHRAISEHTERDSVYKIDDIKKYIAFARCFKPKISDKAAETLVREYKKLRMSDSNNAATSSWRITVRQLESLVRLSEALARLHCGKEVLVEHVEKAAELLNKSIVRVEQPDIALDDDDFDNNIMVVEADKENQRGDDSMDHDGEKENAPKIDIAKLKISFKEYKQLSDVLVLHMRSDEDNQGEDEYDGVKQSALVEWYLSTIEADLETEEDFNVQKTICERVIHRLIHQDHVLLEVEQGEDPTLCVHPNYVIADE
notes: MCM-6, C. elegans; Subunit of m11, written alone for its interface in the structure; source: S. cerevisiae, purified as part of recombinant CMG
In the case of B3, the binding result in assay [2] is given as “binds”.

B4: MCM-5 (natural protein, C. elegans)
chain: MSNLDNPGIYYQERFFANDGVPDTGRELIAEYRQLITQFRNFIRDFSTGGFGMIYRDQLKRNYFSHEYRLEINLNHLKNFDEDIEMKLRKFPGKVLPALEEAAKIVADEITTPRPKGEEKLHDIQVTLTLDEYPTSLRQVKSAQVSQVVKISGIIVAAAQVRSKATKVTLQCRQCKHTIPDVSIKPGLEGFALPRTCAAPQQGQMQRCPIDPYIMLPDKCECVDYQTLKLQENPEDVPHGEMPRHLQLFTERYLTDKVVPGNRVTIVGVYSIKKLIQKKGGDKSLQGIRTPYLRVLGIHMETSGPGRTNFTTFTPEEERMFKTLAQRKDAYELIAKSIAPSIYGSADIKKSIACLLFGGARKKLPDGITRRGDINVLLLGDPGTAKSQLLKFVEQVSPIGVYTSGKGSSAAGLTASVIRDPQSRSFIMEGGAMVLADGGVVCIDEFDKMREDDRVAIHEAMEQQTISIAKAGITTTLNSRCSVLAAANSVYGRWDESRGDDNIDFMPTILSRFDMIYIVKDTHDVLKDATLAKHVIEVHVNASAAKERDIAGVPKTATTDSDGVMTMFDTDGFLTIEFLKKFVTYARLNCGPRLTPQASEKLVNHYVKMRNPVVNADAFKSGKKAHNSAIPITVRQLEAIVRIAESIAKMELQQFATDKHVEEALRLFRVSTIEAAATGNLAGVEGFTSTADQEALNRIEVQMKKRFAIGTHVSEHLIVQDFVARQHYRESLVKKVIDNLVRRGDLQQKMQRKMLYRVR
notes: MCM-5, C. elegans; Subunit of m11, written alone for its interface in the structure; source: S. cerevisiae, purified as part of recombinant CMG
For the molecule B4, the binding result in assay [3] was “binds”.
